Laboratory results: PMC6406907, “A H2AX–CARP-1 Interaction Regulates Apoptosis Signaling Following DNA Damage” (Cancers, 2019)

Key:
HeLa cells = experiment: MTT cell viability/growth inhibition, HeLa; assay type: cell-based, human; conditions: HeLa CARP-1 (Δ600–650) vs WT CARP-1-expressing counterparts, mean of three experiments
Experimental: (§1) Routine maintenance and culture of MDA-MB-468 (lacking estrogen receptor; ER and having mutant p53) human triple-negative breast cancer (TNBC) cells, human cervical cancer HeLa, human kidney cancer UOK 262, non-small-cell lung cancer H1975, and HCC827 cells was carried out essentially as described previously. Generation and characterization of MDA-MB-468 cells expressing reduced CARP-1 was described previously. The stable sublines were generated by transfecting the MDA-MB-468 and Hela cells with the pcDNA3 vector, pcDNA3-CARP-1 wild-type (WT)-myc-His clone 6.1.2, pcDNA3-CARP-1(Δ600–650)-myc-His, pcDNA3-EGFP, pcDNA3-EGFP-H2AX (1–35), or pcDNA3-EGFP-CARP-1 (636–650) plasmids, followed by selection in the presence of 800 μg/mL neomycin using described methods. The cell lysates from wild-type, untransfected cells, neomycin-resistant pools, or individual sublines were then subjected to MTT-based viability, confocal, immunoprecipitation (IP), and Western blot (WB) analyses as below.
(§2) The cell growth inhibition was assessed using an MTT assay following the established protocols described by us previously.
(§3) Here, we utilized human TNBC MDA-MB-468 and human cervical cancer HeLa cells to conduct an MTT-based dose-response analysis using Adriamycin and CFM compounds. […] Since Adriamycin, CFM-4, and CFM-4.16 have molecular masses of 543.3, 404.9, and 440.3, respectively, we chose to use an equimolar dose of each compound in the MTT assays. […] Prior reports established that phosphorylation of H2AX at serine 139 (γ-H2AX) is involved in DNA damage repair and apoptotic signaling by ATM/ATR and JNKs, respectively. Next, the MDA-MB-468, HeLa, and the kidney cancer UOK 262 cells were treated with a 10 μM dose of the CFM-4.16 or Adriamycin for various time periods. The cell lysates from the control, untreated, and treated cells were analyzed by WB for expression of CARP-1, phospho-JNK1/2, phospho-H2AX, and poly ADP ribose polymerase (PARP) proteins. […] The H2AX activation is also indicative of DNA damage and involves pro-apoptotic JNKs. Our data in Figure 1C and Figure S1B,C (Supplementary Materials) also show activation of JNKs; however, a robust JNK activation is co-incident with H2AX phosphorylation following treatments with Adriamycin or CFM-4.16.
Figure 8 Ectopic expression of TAT-CARP-1 (636–650) peptide results in enhanced viabilities of Adriamycin-treated cells. MDA-MB-468 (A) or HeLa (B) cells were pre-incubated with 300 μg/mL indicated peptides for 72 h, followed by treatments with the noted dose and time of Adriamycin. Determination of viable/live cells was carried out using an MTT assay as described in Section 2. The bar charts in panels A and B represent means of three and two independent experiments, respectively; bars, SE. (C) Indicated cells were either pre-incubated with 6 μg/mL indicated peptides for 72 h or not (Control), followed by treatments with Adriamycin as noted. Cells were then processed for immunofluorescence staining for TAT-CARP-1 peptide (red), γH2AX (green), and DAPI (blue) as detailed in Section 2 and Figure S3 (Supplementary Materials). Insets in C show enlarged areas of respective photomicrographs to indicate presence of TAT-CARP-1 peptide and γH2AX in respective columns. The insets in the top and middle rows of the merge column show co-localization of TAT-CARP-1 peptide, and γH2AX (magnification: 250×).
Figure S7. Disruption of H2AX interaction with CARP-1 results in enhanced viabilities of CFM-4, CFM-4.16, or Adriamycin-treated cells in part due to reduced γH2AX and apoptosis. (A,B,C) Indicated HeLa cell lines were treated with DMSO (Control), noted dose and time of Adriamycin, CFM-4, or CFM-4.16 compounds. Determination of viable/live cells was carried out by MTT assay as in methods. The columns in bar charts in panels A, B, C represent means of three independent […]
experiments; bars, SE. […]

MDA-MB-468 cells = experiment: MTT cell viability/growth inhibition, MDA-MB-468; assay type: cell-based, human; conditions: MDA-MB-468 CARP-1 (Δ600–650) vs WT CARP-1-expressing counterparts, MTT, mean of three experiments
Experimental: as §1, §2, §3
Figure 7 Disruption of H2AX interaction with CARP-1 results in enhanced viabilities of CFM-4-, CFM-4.16-, or Adriamycin-treated cells in part due to reduced apoptosis. (A,C,D) Indicated MDA-MB-468 cell lines were treated with DMSO (Control), or with the noted dose and time of Adriamycin, CFM-4, or CFM-4.16 compounds. Determination of viable/live cells was carried out by MTT assay as described in Section 2. (B,E,F) Cell lysates derived from vehicle DMSO (Control), or CFM-4-, CFM-4.16-, or Adriamycin-treated cells were added to the wells that had immobilized fluorogenic substrates of noted caspases. The fluorescence released from the activated caspase-dependent cleavage of respective substrate was detected by a plate reader at the excitation and emission wavelengths of 380 nm and 460 nm, respectively, as detailed in Section 2. The columns in bar charts in panels A, C, D and B, […] represent means of three and two independent experiments, respectively; bars, SE. For panels C and D, * p < 0.05, **p < 0.01 and *** p ≤ 0.001 relative to the respective EGFP vector subline. For panels E and F, *** p ≤ 0.05 relative to the respective EGFP vector subline.
Figure 8 Ectopic expression of TAT-CARP-1 (636–650) peptide results in enhanced viabilities of Adriamycin-treated cells. MDA-MB-468 (A) or HeLa (B) cells were pre-incubated with 300 μg/mL indicated peptides for 72 h, followed by treatments with the noted dose and time of Adriamycin. Determination of viable/live cells was carried out using an MTT assay as described in Section 2. […]

[1] = biological target: CARP-1 (636–650) peptide, biotin-labelled (human) (UniProt Q8IX12); experiment: SPR; SPRi (PlexArray HT); CARP-1 (636–650) peptide printed on bare gold-coated PlexArray Nanocapture chip, blocked with 5% non-fat milk; PBST pH 7.4, 25 °C; global fit to a 1:1 interaction model
Gst-H2AX = experiment: Gst-pulldown with Gst-H2AX; assay type: binding, human; conditions: E. coli-expressed, 4 °C, 2 h, WB anti-HA, Figure 5A
Experimental: Logarithmically growing cells were either untreated or treated with different agents for various time periods. The cells were lysed to prepare protein extracts. IP was carried out by incubating approximately 1 mg of the protein lysate with appropriate antibodies. The immunoprecipitates were then analyzed by SDS-PAGE, followed by WB with respective, interacting protein. For Gst-pulldown, Gst-H2AX or various His-TAT-HA-tagged CARP-1 peptides were generated in Escherichia coli (E. coli) BL21 cells essentially as described by us previously. Briefly, the competent E. coli BL-21 (DE3) pLysS cells were transformed separately with various recombinant pGEX-4T-1 or pTAT-HA constructs. The transformed cells were then subjected to selection by combined presence of ampicillin and chloramphenicol; various isolates for each transformation were obtained and bacterial lysates were characterized for expression of fusion peptides. Cells from each isolate were grown in 4 mL of LB medium containing ampicillin only until the optical density (OD)600 reached 0.4–0.8. Expression of fusion peptides was induced over 2–4 h incubation periods after Isopropyl β-D-1-thiogalactopyranoside (IPTG) addition. The cells were harvested, and pellets were stored at −80 °C overnight. […]

## O=C1N(Cc2ccccc2Cl)c2ccccc2C12NN=C(c1ccccc1)S2 (stereo not drawn) [CFM-4]
HeLa cells
  growth inhibition of CARP-1 (Δ600–650)-expressing cells: resistant to inhibition by CFM-4 or ADR
MDA-MB-468 cells
  growth inhibition of CARP-1 (Δ600–650)-expressing cells: resistant to inhibition by CFM-4 or ADR

## H2AX (1–35) peptide (from UniProt P16104 1-35)
[1]
  Kd: 126 nM
  koff: 0.000292 s⁻¹
  kon: 2320 M⁻¹ s⁻¹

B1: His-TAT-HA-CARP-1 (552–654): E. coli-expressed His-TAT-HA-tagged CARP-1 peptide (peptide)
chain: RPEETHKGRTVPAHVETVVLFFPDVWHCLPTRSEWETLSRGYKQQLVEKLQGERKEADGEQDEEEKDDGEAKEISTPTHWSKLDPKTMKVNDLRKELESRALS
modifications: left off: His, end not stated, kept | TAT, end not stated, kept | HA, end not stated, kept
notes: E. coli-expressed His-TAT-HA-tagged CARP-1 peptide
Gst-H2AX
  binding with Gst-H2AX protein: bound with Gst-H2AX protein
